Consider five molecules from patent US20190031754A1 (Scripps Research, published 2019).

Where two headings read alike, the source gives them in different places.

In assay [1] the target is T1, recombinant human twin strep-tagged ROR2 extracellular domain (human, UniProt Q01974 34-403).
T1 construct: extracellular domain; Made in HEK293T, Streptactin purified; also called Human ROR2-TwinStrep; human ROR2
Put plainly: ELISA, IgG titrated on coated twin-strep human ROR2 ECD; fit printed as IC50.

The target in assay [2] is T1, recombinant human twin strep-tagged …. The description is as above. The source holds these as a separate data set.
In assay [3] the target is T2, anti-human Fc (Jackson ImmunoResearch, 109-006-008).
T2 construct: Coated on a control plate to capture the chimeric IgG1 antibodies through their human Fc; also called IgG
Put plainly: ELISA, IgG titrated on coated anti-human Fc; fit printed as IC50. On the technique in general: In an ELISA, binding on a coated surface is turned into a signal by an enzyme label.

For assay [4], the target named is T3, recombinant cynomolgus twin strep-tagged ROR2 extracellular domain (cynomolgus monkey, UniProt A0A7N9D5U8 34-403).
T3 construct: extracellular domain; Made in HEK293T, Streptactin purified; also called cynomolgus ROR2; cynomolgus ROR2-TwinStrep
Put plainly: ELISA, IgG titrated on coated twin-strep cynomolgus ROR2 ECD; fit printed as IC50.

In assay [5] the target is T2, anti-human Fc (Jackson ImmunoResearch, …). Put plainly: ELISA, IgG titrated on coated anti-human Fc; fit printed as IC50. This is another data set of the same source.
For assay [6], the target named is T4, recombinant murine twin strep-tagged ROR2 extracellular domain (mouse, UniProt Q9Z138 34-403).
T4 construct: extracellular domain; Made in HEK293T, Streptactin purified; also called mouse ROR2; murine ROR2
Put plainly: ELISA, IgG titrated on coated twin-strep mouse ROR2 ECD; fit printed as IC50.

Assay [7] concerns the target T3, recombinant cynomolgus twin …. Put plainly: SPR, Biacore T200, IgG captured by anti-human Fcγ, ROR2-TwinStrep as analyte, 1:1 Langmuir. For orientation: Surface plasmon resonance follows binding to a sensor surface in real time, without labels.
For assay [8], the target named is T1, recombinant human twin strep-tagged …. The assay is described as above.
For assay [9], the target named is T4, recombinant murine twin strep-tagged …. Put plainly: ELISA on coated twin-strep mouse ROR2 ECD (FIG. 14B); patent's own reading of the ELISA curves on coated mouse ROR2 (FIG. 14, panel B).

T4 sequence (Q9Z138 other isoform, or with tags, fused parts or gaps): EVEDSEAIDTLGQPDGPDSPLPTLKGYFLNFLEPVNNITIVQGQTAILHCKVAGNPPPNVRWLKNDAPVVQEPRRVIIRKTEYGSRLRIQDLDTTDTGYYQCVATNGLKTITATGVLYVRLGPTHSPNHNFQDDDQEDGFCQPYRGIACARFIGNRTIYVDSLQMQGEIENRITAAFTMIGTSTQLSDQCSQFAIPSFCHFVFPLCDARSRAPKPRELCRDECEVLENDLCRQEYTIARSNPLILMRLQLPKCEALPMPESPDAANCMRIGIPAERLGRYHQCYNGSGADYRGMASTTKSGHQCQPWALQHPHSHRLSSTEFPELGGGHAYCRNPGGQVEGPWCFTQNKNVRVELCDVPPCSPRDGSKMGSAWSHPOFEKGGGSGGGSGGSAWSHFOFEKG

B1: ERR2-302 (mAb004) (antibody, human IgG1, V domains shown)
VH: QKQLVESGGGLVKPGGSLTLTCTVSGFSLSSYAIGWVRQAPGNGLEWIGIINSYGSTYYASWAKSRSTITRNTNLNTVTLKMTSLTAADTATYFCARSPYGYVSAWGYHRLDLWGQGTLVTISS
VL: SYELTQLPSVSVSLGQTARITCGGASIGSKVVHWYQQKPGLAPGLLIYDDDERPSGVPDRFSGSNSGDTATLTISGAQAGDEAEYYCQLWDGSDVVFGGGTQLTVTG
notes: Full-length chimeric rabbit/human IgG1, human IgH-gamma1 and IgL-lambda constant regions; C-terminal tags HC: LPETG-Strep, LC: G5SLPETG-Strep
Broadly, the IC50 is the concentration needed to halve the response being measured. The Kd is a measure of binding affinity in units of concentration. As a reminder, the koff is the first-order rate constant of dissociation. Broadly, the kon is a measure of how fast the partners come together. As to B1, the half-inhibitory concentration (IC50) in assay [1] is 0.0055 µg/mL; in assay [2], 0.102 µg/mL; in assay [3], 0.0134 µg/mL; in assay [4], 0.0071 µg/mL; in assay [5] it was 0.0322 µg/mL; in [6] it was 0.0606 µg/mL. Moreover, the Kd stood at 48.6 nM in [7] and 52.4 nM in assay [8]. Also, the values for the koff in [7] and in [8] were 0.00527 s⁻¹ and 0.0056 s⁻¹, respectively. For the same molecule, the kon in assay [7] turned out to be 108000 M⁻¹ s⁻¹; in assay [8] it was 107000 M⁻¹ s⁻¹.

B2: ERR2-316 (mAb005) (antibody, human IgG1, V domains shown)
VH: QKQLVESGGRLVTPGGSLTLTCTVSGFSLSKYGVSWVRQAPGSGLEYIGTIGGSGTSYYASWAKSRSTITRNTNLNTVTLKMTSLTAADTATYFCARYFGWNTGFDIWGPGTLVTISS
VL: DPVMTQTPSSVSEPVGGTVTIKCQASQSISNALAWYQQKPGQPPKRLIYKASTPASGVPSRFKGSRSGTEYTLTISGVQREDAATYYCLGFSVVSNDGWAFGAGTNVEIK
notes: Full-length chimeric rabbit/human IgG1, human IgH-gamma1 and IgL-kappa constant regions; C-terminal tags HC: LPETG-Strep, LC: G5SLPETG-Strep; also called mAb0005
Regarding B2, the IC50 in assay [1] turned out to be 0.0407 µg/mL; in assay [2], 0.0299 µg/mL; in assay [3], 0.0112 µg/mL; in [4] it was 0.044 µg/mL; in assay [5] it was 0.04 µg/mL. Also, in assay [9], the binding result is given as “no binding (tested: 0.5 µg/mL highest concentration)”.

B3: ERR2-Top35 (mAb130) (antibody, V domains shown)
VH: QSVKESEGGLFKPMDTLTLTCTVSGFSLNTYGVSWVRQAPGNGLEWIGAVGSSGATNYASWAKSRSTITRNTNENTVTLKMTSLTAADTATYFCARDGYYSSGWGPYFSIWGPGTLVTVSS
VL: SFVLTQPASVQVNLGQTVSLTCTAETLRSSYASWYQQKPGQAPVLLIYRDTSRPSGVPDRFSGSSSGNTATLTISGAQAGDEADYYCATSDGSGSRYYVFGGGTQLTVTG
For the molecule B3, the IC50 in assay [1] was 0.0462 µg/mL; in [2], 0.0244 µg/mL; in [3], 0.0143 µg/mL; in [4] it was 0.0531 µg/mL; in [5], 0.0419 µg/mL; in assay [6] it was 0.0173 µg/mL.

B4: ERR2-317 (mAb006) (antibody, human IgG1, V domains shown)
VH: QSLEESGGRLVTPGTPLTLTCTASGFSLSSYDMIWVRQAPGKGLEYIGIINAGGNTYYASWAKGRFTISRTSTTVDLKMTSPTTEDTATYFCARGSSWTGDIWGPGTLVTVSS
VL: DPVLTQTPSSTSAAVGGTVTIKCQASQSISSYLSWYQQKPGQPPKQLIYAASTLASGVPSRFKGSGSGTEYTLTISGVQREDAATYYCLGGYASASYQTAFGGGTKVEIK
notes: Full-length chimeric rabbit/human IgG1, human IgH-gamma1 and IgL-kappa constant regions; C-terminal tags HC: LPETG-Strep, LC: G5SLPETG-Strep
Turning to B4, the IC50 in assay [1] worked out at 0.0168 µg/mL; in [2], 1.35 µg/mL; in assay [3], 0.0084 µg/mL; in assay [4], 0.019 µg/mL; in assay [5] it was 0.0391 µg/mL. Also, the binding result in assay [9] is reported as “no binding (tested: 0.5 µg/mL highest concentration)”.

B5: ERR2-308 (mAb037) (antibody, human IgG1, V domains shown)
VH: QEQLEESGGRLVTPGTPLTLTCAVSGFSLSNYAMGWVRQAPGEGLEYIGWISAGGGAYYASWVNGRFTISKTSSTVDLKMTSLTAADTATYFCARGASNGCDLWGPGTLVTVSS
VL: DPMLTQTPSSVSAVVGGTVTIKCQASQSITSWLSWYQQKPGQPPKLLIYGASHLASGVPSRFKGSGYGTEFTLTISGIQREDAATYYCLGGYSNSDIVFGGGTELEIL
notes: as for B4
Consider B5, for which the IC50 was 0.0186 µg/mL in assay [1]; 0.467 µg/mL in assay [2]; 0.0167 µg/mL in assay [3]; 0.0046 µg/mL in assay [4]; 0.0336 µg/mL in assay [5]. Further, the binding result in assay [9] is listed as “no binding (tested: 0.5 µg/mL highest concentration)”. The values for the Kd in assay [7] and in assay [8] were 5.4 nM and 11.2 nM, respectively. Moreover, the koff stood at 0.000127 s⁻¹ in assay [7] and 0.000153 s⁻¹ in assay [8]. The figures for the kon in [7] and in [8] were 23800 M⁻¹ s⁻¹ and 13700 M⁻¹ s⁻¹, respectively.
